From patent US5798442A, “Peptidyl derivatives as inhibitors of pro-apoptotic cysteine proteinases” (Merck Frosst Canada, Inc., priority 1995, dated 1998) come the findings set out here.

Substrate in this series: CC(=O)N[C@@H](CC(=O)O)C(=O)N[C@@H](CCC(=O)O)C(=O)N[C@H](C(=O)N[C@@H](CC(=O)O)C(=O)Nc1ccc2c(C)cc(=O)oc2c1)C(C)C
The experiment in a line: continuous fluorometric assay with Ac-DEVD-AMC and purified apopain. Type of series: biochemical, human. The following applies: other: purified apopain, 25° C., pH 7.5.

B1: apopain/CPP32 (Homo sapiens) (protein)
chain 1: SGISLDNSYKMDYPEMGLCIIINNKNFHKSTGMTSRSGTDVDAANLRETFRNLKYEVRNKNDLTREEIVELMRDVSKEDHSKRSSFVCVLLSHGEEGIIFGTNGPVDLKKITNFFRGDRCRSLTGKPKLFIIQACRGTELDCGIETD
chain 2: SGVDDDMACHKIPVEADFLYAYSTAPGYYSWRNSKDGSWFIQSLCAMLKQYADKLEFMHILTRVNRKVATEFESFSFDATFHAKKQIPCIVSMLTKELYFYH
notes: cleavage between Asp^28 -Ser^29 and Asp^175 -Ser^176; cleavage sites which yield the p17 and p12 subunits from the CPP32 proenzyme; endogenous in cells; host or cells: THP-1 cells (ATCC TIB 202)
As usually defined, the Km is the substrate concentration at which the rate is half of its maximum. B1: the Michaelis constant (Km) came to 9.7 ± 1.0 µM.
